The text below walks through data of PMC7680125.

Data set [1] addresses Isw1 (ISW1a catalytic subunit);Ioc3 (Saccharomyces cerevisiae (BY4742?);Saccharomyces cerevisiae (BY4742)) (UniProt P38144+P43596). Description: EMSA. Conditions: 35 mM Na-HEPES pH 7.8, 5 mM MgCl2, 0.1 mM EGTA, 0.02 M EDTA (so in the source), 70 mM NaCl, 0.1 mg/ml BSA, 5-8% glycerol, 40 uM 2-mercaptoethanol, 30 C, 30 min …. Background: Mobility shift assays separate free from complexed probe on a gel.

For data set [2], the target named is Isw1 (ISW1a catalytic subunit);Ioc3 dcHLB del496-565 (Saccharomyces cerevisiae (BY4742?);Saccharomyces cerevisiae (BY4742)) (UniProt P38144+P43596). Kind of data set: EMSA. Conditions: 35 mM Na-HEPES pH 7.8, 5 mM MgCl2, 0.1 mM EGTA, 0.02 M EDTA (so in the source), 70 mM NaCl, 0.1 mg/ml BSA, 5-8% glycerol, 40 uM 2-mercaptoethanol, 30 C, 30 min ….

As to 0N70 mononucleosome, the Kd turned out to be 30.3 nM in data set [1] and 32.5 nM in data set [2].
For “CACCGGCACGGTCGCTGTTCGATACGTGCGCCGGACGTATATATCTGACACGTGCCTGGCGACTAGGGAGCGATCCCCTTGGCGGTTAAAACGCGGGGGACAGCGCGTACGTGCGTTTAAGCGGTGCTAGAGCTGTCTACGACCAATTGAGCGGCCTCGGCACCGGGAATCTCCAGGGCGGCCGCGTATAGGCTCCGGATCCTCTAGAGTCGACCTCGAAACGGGTACCCCAGGGACTTGAAGTAATAAGGACGGAGGGCCTCTTTCAACATCGATGCACGGTGGTTAGCCTTGGATTGCGCTCTACCGAGCGCTAAGCGTACTTAGAAGCGCGAGCGACGACTTCACACGGTAGGTGGGCGCGCGAACTGGGCAGATCC (double strand) [30(N1)50(N2)6 dinucleosome]” the same measures were 10.2 nM and 28 nM.
As to “CCGGACGTATATATCTGACACGTGCCTGGCGACTAGGGAGCGATCCCCTTGGCGGTTAAAACGCGGGGGACAGCGCGTACGTGCGTTTAAGCGGTGCTAGAGCTGTCTACGACCAATTGAGCGGCCTCGGCACCGGGAATCTCCAGGGCGGCCGCGTATAGGCTCCGGATCCTCTAGAGTCGACCTCGAAACGGGTACCCCAGGGACTTGAAGTAATAAGGACGGAGGGCCTCTTTCAACATCGATGCACGGTGGTTAGCCTTGGATTGCGCTCTACCGAGCGCTAAGCGTACTTAGAAGCGCGAGCGACGACTTCACACGGTAGGTGGGCGCGCGAACTGGGCAGATCC (double strand) [0(N1)50(N2)6 dinucleosome]”, the Kd in data set [1] was 45.9 nM; in data set [2], 34.5 nM.
For “TCGGAACGCTATCCGACTGGCACCGGCACGGTCGCTGTTCGATACGTGCGCCGGACGTATATATCTGACACGTGCCTGGCGACTAGGGAGCGATCCCCTTGGCGGTTAAAACGCGGGGGACAGCGCGTACGTGCGTTTAAGCGGTGCTAGAGCTGTCTACGACCAATTGAGCGGCCTCGGCACCGGGAATCTCCAGGGCGGCCGCGTATAGGCTCCGGATCCTCTAGAGTCGACCTCGAAACGGGTACCCCAGGGACTTGAAGTAATAAGGACGGAGGGCCTCTTTCAACATCGATGCACGGTGGTTAGCCTTGGATTGCGCTCTACCGAGCGCTAAGCGTACTTAGAAGCGCGAGCGACGACTTCACACGGTAGGTGGGCGCGCGAACTGGGCAGATCC (double strand) [50(N1)50(N2)6 dinucleosome]” the same measures were 5.29 nM and 12.5 nM.

As usually defined, the Kd is the equilibrium constant for the complex coming apart. Higher therefore signals lower affinity.
